Data on three variants can be found in IntAct's records for PubMed 19571008.

The labels stand for the following.
B1: Non-homologous end-joining protein 1 (Saccharomyces cerevisiae), Q06148 (parent)
chain: MDSELKGQQLSDAEWCVKKINGEGNCLLLFLPMSSPTTIVMIVLVSLERLVPYVFKLSQTQLSQQCQSQGFTDSISLNLIKLKLMDILQAPQEINQIGLVDSNLVFSFDVSADITVSINSVPSHVTKDMFYMILQSLCMLLLKLVNLSTQYHYVQRDILNEKQKCLDFLLISLRDLDGGSKVISQWAPENSKNYESLQQCTDDDIIKKLLHKGKFQHQEFLADSLKTLLSLRNKFQDVSRFEESGELNKKERVRFPAVNHFYNDDFELQADPTNEARPNSRGKIKPKTDFKPKSRESSTSSQLRLENFSESEATPEKTKSSSSLVEEYPQKKRKFGKVRIKN

The variants in the assay derive from B1. The conditions noted are these: with srs2_yeast SRS2, P12954.
Chain of srs2_yeast SRS2, P12954 (P12954 whole entry): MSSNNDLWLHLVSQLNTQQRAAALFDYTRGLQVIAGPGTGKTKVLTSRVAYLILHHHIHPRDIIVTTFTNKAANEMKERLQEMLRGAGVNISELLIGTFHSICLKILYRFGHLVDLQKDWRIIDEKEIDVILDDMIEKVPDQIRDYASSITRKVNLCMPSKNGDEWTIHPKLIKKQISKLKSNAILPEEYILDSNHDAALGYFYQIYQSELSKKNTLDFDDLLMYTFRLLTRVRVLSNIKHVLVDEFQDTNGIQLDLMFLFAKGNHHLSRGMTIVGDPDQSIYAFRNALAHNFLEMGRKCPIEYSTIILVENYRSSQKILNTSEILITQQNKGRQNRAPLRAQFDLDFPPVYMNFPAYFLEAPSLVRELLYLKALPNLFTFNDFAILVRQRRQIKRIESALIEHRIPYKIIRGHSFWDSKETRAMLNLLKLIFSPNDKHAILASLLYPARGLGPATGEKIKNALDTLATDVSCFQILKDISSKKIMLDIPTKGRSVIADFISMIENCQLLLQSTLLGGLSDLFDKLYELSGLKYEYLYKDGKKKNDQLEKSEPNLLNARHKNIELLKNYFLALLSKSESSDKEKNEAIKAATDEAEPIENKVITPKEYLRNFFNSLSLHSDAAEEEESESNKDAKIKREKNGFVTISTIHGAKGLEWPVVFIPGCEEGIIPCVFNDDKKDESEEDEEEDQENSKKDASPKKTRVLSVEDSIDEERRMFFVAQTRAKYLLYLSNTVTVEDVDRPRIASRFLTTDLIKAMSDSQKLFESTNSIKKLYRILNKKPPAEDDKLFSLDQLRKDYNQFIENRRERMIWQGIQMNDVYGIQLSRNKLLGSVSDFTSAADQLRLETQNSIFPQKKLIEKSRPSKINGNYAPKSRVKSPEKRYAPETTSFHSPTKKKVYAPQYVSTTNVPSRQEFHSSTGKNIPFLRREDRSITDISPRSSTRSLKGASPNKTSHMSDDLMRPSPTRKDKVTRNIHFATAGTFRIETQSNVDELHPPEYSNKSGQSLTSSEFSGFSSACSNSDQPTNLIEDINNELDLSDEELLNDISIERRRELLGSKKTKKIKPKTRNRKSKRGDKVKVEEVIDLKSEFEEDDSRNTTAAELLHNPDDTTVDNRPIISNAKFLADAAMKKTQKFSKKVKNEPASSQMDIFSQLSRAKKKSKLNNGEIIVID
Take MDSELKGQQLSDAEWCVKKINGEGNCLLLFLPMSSPTTIVMIVLVSLERLVPYVFKLSQTQLSQQCQSQGFTDSISLNLIKLKLMDILQAPQEINQIGLVDSNLVFSFDVSADITVSINSVPSHVTKDMFYMILQSLCMLLLKLVNLSTQYHYVQRDILNEKQKCLDFLLISLRDLDGGSKVISQWAPENSKNYESLQQCTDDDIIKKLLHKGKFQHQEFLADSLKTLLSLRNKFQDVSRFEESGELNKKERVRFPAVNHFYNDDFELQADPTNEARPNSRGKIKPKTDFKPKSRESATSSQLRLENFSESEATPEKTKSSSSLVEEYPQKKRKFGKVRIKN [S298A]: the “effect of a mutation on the interaction” value was “disrupting interaction”. The value for MDSELKGQQLSDAEWCVKKINGEGNCLLLFLPMSSPTTIVMIVLVSLERLVPYVFKLSQTQLSQQCQSQGFTDSISLNLIKLKLMDILQAPQEINQIGLVDSNLVFSFDVSADITVSINSVPSHVTKDMFYMILQSLCMLLLKLVNLSTQYHYVQRDILNEKQKCLDFLLISLRDLDGGSKVISQWAPENSKNYESLQQCTDDDIIKKLLHKGKFQHQEFLADSLKTLLSLRNKFQDVSRFEESGELNKKERVRFPAVNHFYNDDFELQADPTNEARPNSRGKIKPKTDFKPKSREAATSSQLRLENFSESEATPEKTKSSSSLVEEYPQKKRKFGKVRIKN [S297A;S298A] was “disrupting interaction”. Consider MDSELKGQQLSDAEWCVKKINGEGNCLLLFLPMSSPTTIVMIVLVSLERLVPYVFKLSQTQLSQQCQSQGFTDSISLNLIKLKLMDILQAPQEINQIGLVDSNLVFSFDVSADITVSINSVPSHVTKDMFYMILQSLCMLLLKLVNLSTQYHYVQRDILNEKQKCLDFLLISLRDLDGGSKVISQWAPENSKNYESLQQCTDDDIIKKLLHKGKFQHQEFLADSLKTLLSLRNKFQDVSRFEESGELNKKERVRFPAVNHFYNDDFELQADPTNEARPNSRGKIKPKTDFKPKSREASTSSQLRLENFSESEATPEKTKSSSSLVEEYPQKKRKFGKVRIKN [S297A], for which the “effect of a mutation on the interaction” value is recorded as “disrupting interaction”.
